In the supplement of paper PMC6757056:
± gives the standard deviation of the averaged measurements.

B1: library; a variant is named by its letters at N, in order (parent)
chain: GCUGUCACCGGUGCUUGGUACGUUAUAUUCAGCCGGUCUGAUGAGUCUNNNNNNAGACGAAACAGC

Legend:
[1] = variants of: B1; test: normalized RNA/DNA level without ligand (relative to sTRSVctl = 100) (log10 (% of sTRSVctl)); HEK293T overexpressing SLC46A1; higher = less ribozyme self-cleavage, higher mRNA level; settings: without (6R,S)-folinic acid; ligand present: no
Procedure, shortened: (§1)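 Only sequences with at least 100 DNA reads were analyzed, from HEK293T cells transfected with 4 µg per 6-well well of ribozyme switch library plasmids 72 h before RNA extraction with EDTA. Any ligand was added 1 h before transfection. RNA level was defined as RNA over DNA reads, normalized to a spiked-in non-cleaving sequence or to the top sequences, then scaled and log-transformed. The top set was 25 sequences, and the scaling was ×100 followed by log10.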

[2] = variants of: B1; test: normalized RNA/DNA level with ligand (relative to sTRSVctl = 100) (log10 (% of sTRSVctl)); HEK293T overexpressing SLC46A1; ligand concentration (+) RNA-Seq: 6 mM; higher = less ribozyme self-cleavage, higher mRNA level; settings: with (6R,S)-folinic acid; ligand present: yes
Procedure, shortened: as §1

## GCUGUCACCGGUGCUUGGUACGUUAUAUUCAGCCGGUCUGAUGAGUCUAUUAUGAGACGAAACAGC
[1]
  normalized RNA/DNA level without ligand (log10): 1.94 ± 0.021
[2]
  normalized RNA/DNA level with ligand (log10): 2.02 ± 0.033

## GCUGUCACCGGUGCUUGGUACGUUAUAUUCAGCCGGUCUGAUGAGUCUUAGGCUAGACGAAACAGC
[1]
  normalized RNA/DNA level without ligand (log10): 2.03 ± 0.024
[2]
  normalized RNA/DNA level with ligand (log10): 2.05 ± 0.061

## GCUGUCACCGGUGCUUGGUACGUUAUAUUCAGCCGGUCUGAUGAGUCUUGCAGUAGACGAAACAGC
[1]
  normalized RNA/DNA level without ligand (log10): 1.9094 ± 0.0015
[2]
  normalized RNA/DNA level with ligand (log10): 1.96 ± 0.026

## GCUGUCACCGGUGCUUGGUACGUUAUAUUCAGCCGGUCUGAUGAGUCUGCACGAAGACGAAACAGC
[1]
  normalized RNA/DNA level without ligand (log10): 2.029 ± 0.005
[2]
  normalized RNA/DNA level with ligand (log10): 2.03 ± 0.038

## GCUGUCACCGGUGCUUGGUACGUUAUAUUCAGCCGGUCUGAUGAGUCUUUGUUGAGACGAAACAGC
[1]
  normalized RNA/DNA level without ligand (log10): 1.96 ± 0.026
[2]
  normalized RNA/DNA level with ligand (log10): 2.05 ± 0.027

## GCUGUCACCGGUGCUUGGUACGUUAUAUUCAGCCGGUCUGAUGAGUCUAGCAGUAGACGAAACAGC
[1]
  normalized RNA/DNA level without ligand (log10): 1.991 ± 0.0037
[2]
  normalized RNA/DNA level with ligand (log10): 2.01 ± 0.028

## GCUGUCACCGGUGCUUGGUACGUUAUAUUCAGCCGGUCUGAUGAGUCUCGAGCAAGACGAAACAGC
[1]
  normalized RNA/DNA level without ligand (log10): 2 ± 0.021
[2]
  normalized RNA/DNA level with ligand (log10): 2.02 ± 0.029

## GCUGUCACCGGUGCUUGGUACGUUAUAUUCAGCCGGUCUGAUGAGUCUCUUCCCAGACGAAACAGC
[1]
  normalized RNA/DNA level without ligand (log10): 2.01 ± 0.03
[2]
  normalized RNA/DNA level with ligand (log10): 2.002 ± 0.007

## GCUGUCACCGGUGCUUGGUACGUUAUAUUCAGCCGGUCUGAUGAGUCUUAAGGUAGACGAAACAGC
[1]
  normalized RNA/DNA level without ligand (log10): 1.844 ± 0.0031
[2]
  normalized RNA/DNA level with ligand (log10): 1.967 ± 0.018

## GCUGUCACCGGUGCUUGGUACGUUAUAUUCAGCCGGUCUGAUGAGUCUAUCGCAAGACGAAACAGC
[1]
  normalized RNA/DNA level without ligand (log10): 2.01 ± 0.024
[2]
  normalized RNA/DNA level with ligand (log10): 2 ± 0.032

## GCUGUCACCGGUGCUUGGUACGUUAUAUUCAGCCGGUCUGAUGAGUCUCGCUACAGACGAAACAGC
[1]
  normalized RNA/DNA level without ligand (log10): 2.0081 ± 0.001
[2]
  normalized RNA/DNA level with ligand (log10): 2.03 ± 0.048

## GCUGUCACCGGUGCUUGGUACGUUAUAUUCAGCCGGUCUGAUGAGUCUUCCAUAAGACGAAACAGC
[1]
  normalized RNA/DNA level without ligand (log10): 1.972 ± 0.0018
[2]
  normalized RNA/DNA level with ligand (log10): 1.98 ± 0.042

## GCUGUCACCGGUGCUUGGUACGUUAUAUUCAGCCGGUCUGAUGAGUCUUUCUCCAGACGAAACAGC
[1]
  normalized RNA/DNA level without ligand (log10): 2.083 ± 0.014
[2]
  normalized RNA/DNA level with ligand (log10): 2.02 ± 0.038

## GCUGUCACCGGUGCUUGGUACGUUAUAUUCAGCCGGUCUGAUGAGUCUCCAUAGAGACGAAACAGC
[1]
  normalized RNA/DNA level without ligand (log10): 1.922 ± 0.0071
[2]
  normalized RNA/DNA level with ligand (log10): 1.99 ± 0.02

## GCUGUCACCGGUGCUUGGUACGUUAUAUUCAGCCGGUCUGAUGAGUCUUUGCUGAGACGAAACAGC
[1]
  normalized RNA/DNA level without ligand (log10): 1.978 ± 0.004
[2]
  normalized RNA/DNA level with ligand (log10): 2.01 ± 0.05

## GCUGUCACCGGUGCUUGGUACGUUAUAUUCAGCCGGUCUGAUGAGUCUCGACUUAGACGAAACAGC
[1]
  normalized RNA/DNA level without ligand (log10): 2.01 ± 0.035
[2]
  normalized RNA/DNA level with ligand (log10): 2.05 ± 0.025

## GCUGUCACCGGUGCUUGGUACGUUAUAUUCAGCCGGUCUGAUGAGUCUCCCGGAAGACGAAACAGC
[1]
  normalized RNA/DNA level without ligand (log10): 2.073 ± 0.016
[2]
  normalized RNA/DNA level with ligand (log10): 2.03 ± 0.061

## GCUGUCACCGGUGCUUGGUACGUUAUAUUCAGCCGGUCUGAUGAGUCUCCAACCAGACGAAACAGC
[1]
  normalized RNA/DNA level without ligand (log10): 2.027 ± 0.016
[2]
  normalized RNA/DNA level with ligand (log10): 1.99 ± 0.042

## GCUGUCACCGGUGCUUGGUACGUUAUAUUCAGCCGGUCUGAUGAGUCUGAGACCAGACGAAACAGC
[1]
  normalized RNA/DNA level without ligand (log10): 2.021 ± 0.0065
[2]
  normalized RNA/DNA level with ligand (log10): 2.04 ± 0.057

## GCUGUCACCGGUGCUUGGUACGUUAUAUUCAGCCGGUCUGAUGAGUCUGCAUUGAGACGAAACAGC
[1]
  normalized RNA/DNA level without ligand (log10): 1.952 ± 0.009
[2]
  normalized RNA/DNA level with ligand (log10): 2.01 ± 0.011

## GCUGUCACCGGUGCUUGGUACGUUAUAUUCAGCCGGUCUGAUGAGUCUAGCCCAAGACGAAACAGC
[1]
  normalized RNA/DNA level without ligand (log10): 2.045 ± 0.0089
[2]
  normalized RNA/DNA level with ligand (log10): 2.02 ± 0.028

## GCUGUCACCGGUGCUUGGUACGUUAUAUUCAGCCGGUCUGAUGAGUCUUAUCACAGACGAAACAGC
[1]
  normalized RNA/DNA level without ligand (log10): 1.978 ± 0.0043
[2]
  normalized RNA/DNA level with ligand (log10): 1.99 ± 0.013

## GCUGUCACCGGUGCUUGGUACGUUAUAUUCAGCCGGUCUGAUGAGUCUGUGAUUAGACGAAACAGC
[1]
  normalized RNA/DNA level without ligand (log10): 2.01 ± 0.024
[2]
  normalized RNA/DNA level with ligand (log10): 2.02 ± 0.022

## GCUGUCACCGGUGCUUGGUACGUUAUAUUCAGCCGGUCUGAUGAGUCUCCCAGGAGACGAAACAGC
[1]
  normalized RNA/DNA level without ligand (log10): 2.042 ± 0.006
[2]
  normalized RNA/DNA level with ligand (log10): 2.01 ± 0.025

## GCUGUCACCGGUGCUUGGUACGUUAUAUUCAGCCGGUCUGAUGAGUCUCUCAUUAGACGAAACAGC
[1]
  normalized RNA/DNA level without ligand (log10): 2.08 ± 0.03
[2]
  normalized RNA/DNA level with ligand (log10): 2.05 ± 0.026

## GCUGUCACCGGUGCUUGGUACGUUAUAUUCAGCCGGUCUGAUGAGUCUUUCACAAGACGAAACAGC
[1]
  normalized RNA/DNA level without ligand (log10): 1.966 ± 0.017
[2]
  normalized RNA/DNA level with ligand (log10): 1.971 ± 0.015

## GCUGUCACCGGUGCUUGGUACGUUAUAUUCAGCCGGUCUGAUGAGUCUUUCACGAGACGAAACAGC
[1]
  normalized RNA/DNA level without ligand (log10): 1.954 ± 0.013
[2]
  normalized RNA/DNA level with ligand (log10): 2.01 ± 0.028

## GCUGUCACCGGUGCUUGGUACGUUAUAUUCAGCCGGUCUGAUGAGUCUUCAUAUAGACGAAACAGC
[1]
  normalized RNA/DNA level without ligand (log10): 1.952 ± 0.0097
[2]
  normalized RNA/DNA level with ligand (log10): 1.98 ± 0.03

## GCUGUCACCGGUGCUUGGUACGUUAUAUUCAGCCGGUCUGAUGAGUCUCUCAGGAGACGAAACAGC
[1]
  normalized RNA/DNA level without ligand (log10): 1.99 ± 0.021
[2]
  normalized RNA/DNA level with ligand (log10): 2.03 ± 0.03

## GCUGUCACCGGUGCUUGGUACGUUAUAUUCAGCCGGUCUGAUGAGUCUUGUACGAGACGAAACAGC
[1]
  normalized RNA/DNA level without ligand (log10): 1.772 ± 0.0054
[2]
  normalized RNA/DNA level with ligand (log10): 1.98 ± 0.038

## GCUGUCACCGGUGCUUGGUACGUUAUAUUCAGCCGGUCUGAUGAGUCUUACCAGAGACGAAACAGC
[1]
  normalized RNA/DNA level without ligand (log10): 1.862 ± 0.011
[2]
  normalized RNA/DNA level with ligand (log10): 1.96 ± 0.025

## GCUGUCACCGGUGCUUGGUACGUUAUAUUCAGCCGGUCUGAUGAGUCUGCAGUUAGACGAAACAGC
[1]
  normalized RNA/DNA level without ligand (log10): 2.03 ± 0.0047
[2]
  normalized RNA/DNA level with ligand (log10): 2.04 ± 0.053

## GCUGUCACCGGUGCUUGGUACGUUAUAUUCAGCCGGUCUGAUGAGUCUCCUGAAAGACGAAACAGC
[1]
  normalized RNA/DNA level without ligand (log10): 2.0009 ± 0.0006
[2]
  normalized RNA/DNA level with ligand (log10): 2 ± 0.044

## GCUGUCACCGGUGCUUGGUACGUUAUAUUCAGCCGGUCUGAUGAGUCUACAUCGAGACGAAACAGC
[1]
  normalized RNA/DNA level without ligand (log10): 2.006 ± 0.014
[2]
  normalized RNA/DNA level with ligand (log10): 2.07 ± 0.027

## GCUGUCACCGGUGCUUGGUACGUUAUAUUCAGCCGGUCUGAUGAGUCUCUAUCUAGACGAAACAGC
[1]
  normalized RNA/DNA level without ligand (log10): 2.042 ± 0.0051
[2]
  normalized RNA/DNA level with ligand (log10): 2.06 ± 0.022

## GCUGUCACCGGUGCUUGGUACGUUAUAUUCAGCCGGUCUGAUGAGUCUUGAGGCAGACGAAACAGC
[1]
  normalized RNA/DNA level without ligand (log10): 1.982 ± 0.0067
[2]
  normalized RNA/DNA level with ligand (log10): 1.98 ± 0.073

## GCUGUCACCGGUGCUUGGUACGUUAUAUUCAGCCGGUCUGAUGAGUCUUUGGCAAGACGAAACAGC
[1]
  normalized RNA/DNA level without ligand (log10): 2.013 ± 0.011
[2]
  normalized RNA/DNA level with ligand (log10): 2.06 ± 0.035

## GCUGUCACCGGUGCUUGGUACGUUAUAUUCAGCCGGUCUGAUGAGUCUGGGAUAAGACGAAACAGC
[1]
  normalized RNA/DNA level without ligand (log10): 2 ± 0.028
[2]
  normalized RNA/DNA level with ligand (log10): 2.03 ± 0.022

## GCUGUCACCGGUGCUUGGUACGUUAUAUUCAGCCGGUCUGAUGAGUCUCGUGCGAGACGAAACAGC
[1]
  normalized RNA/DNA level without ligand (log10): 1.974 ± 0.0043
[2]
  normalized RNA/DNA level with ligand (log10): 1.99 ± 0.031

## GCUGUCACCGGUGCUUGGUACGUUAUAUUCAGCCGGUCUGAUGAGUCUGCCUGGAGACGAAACAGC
[1]
  normalized RNA/DNA level without ligand (log10): 2.001 ± 0.011
[2]
  normalized RNA/DNA level with ligand (log10): 2.03 ± 0.034

## GCUGUCACCGGUGCUUGGUACGUUAUAUUCAGCCGGUCUGAUGAGUCUAGAACGAGACGAAACAGC
[1]
  normalized RNA/DNA level without ligand (log10): 1.954 ± 0.0051
[2]
  normalized RNA/DNA level with ligand (log10): 2.018 ± 0.016
